Entries after “also recorded” stand apart in the source; their conditions may differ.

Experiment [1] has as its system mice. Nature of the experiment: Three-chamber sociability assay. In kind it is in vivo, mouse. To be noted: for social deficits / social behavior / social preference / social deficits: Ifng−/− mice; for social deficits / social behavior: diazepam 1.25 mg/kg i.p. 30 minutes prior to testing; for social preference / social deficits: single CSF (i.c.m.) injection of IFN-γ 20 ng, tested 24 hours post-injection. The procedure: The three-chamber sociability test was conducted as previously described^31. Briefly, mice were transported to the testing room and habituated for at least one hour. The room was maintained in dim light and a white noise generator used to mitigate any unforeseen noises. Test boxes were fabricated, in-house, by a machine shop. Test mice were placed in the center chamber with the two outer chambers containing empty wire cages (Spectrum Diversified Designs) and allowed to explore for ten minutes (habituation phase). After the habituation phase, mice were return to the center chamber. A novel mouse (an 8-10 week old male C57BL/6J˜18-22 g) was placed under one cup and an object placed under the other. Prior to testing, the novel mouse was habituated to the cup by being placed under the cup for 10 minutes, 3 times a day for 5 days. Mice were allowed to explore for an additional ten minutes (social phase). A video tracking system (CleverSys) was used to quantify the time spent around each target. For 3-chamber experiments comparing social behavior between wild-type and SCID mice, data collected using males and females were combined because no significant effects were found between genders.
A rat monoclonal antibody to murine VLA4 (clone PS/2) was affinity purified from hybridoma supernatants and was used with the kind permission of Dr. Klaus Ley (La Jolla Institute of Allergy and Immunology, San Diego, Calif.). Mice were given two separate injections (i.p.; 0.2 mg in saline per mouse), four days apart, of either anti-VLA4 or rat anti-HRP for control (clone HRPN; BioXcell), then tested twenty-four hours post final injection.
(§1) Mice were anaesthetized with a ketamine/xylazine [ketamine (100 mg/kg) and xylazine (10 mg/kg)] injection (i.p.) or isoflurane (2%), then placed into a stereotaxic frame with the head at an approximately 45° angle. The skin above cisterna magna was cleaned and sanitize before a 1 cm incision was made. The underlying muscles were separated with forceps, retracted, and a small Hamilton syringe (33 G) was used to slowly inject 1 uL of saline or IFN-γ (20 ng; eBioscience) into the cisterna magna (i.c.m.). After injection the syringe was held in place for 5 minutes to avoid back-flow of CSF. After the syringe was removed, muscles were put back in place and skin was sutured. Mice were placed on a heating pad and given ketoprofen and baytril for recovery.
Diazepam (1.25 mg/kg) was delivered i.p. for 30 minutes prior to testing for social behavior.

For the next experiment, the system named is Ifng−/− mice. Nature of the experiment: Resting-state fMRI functional connectivity of PFC/insular nodes. In kind it is in vivo, mouse. The settings on record: single injection of recombinant IFN-γ into the CSF. The source says:
The protocol for rsfMRI was adapted from Zhan et al.^32. Mice were maintained under light anesthesia with (1-1.25%) isoflurane and images were acquired on a 7.0 Tesla MRI Clinscan system (Bruker, Etlingen, Germany) using a 30-mm inner-diameter mouse whole-body radiofrequency coil. High-resolution structural images were acquired by collecting 16×0.7 mm thick coronal slices using TR/TE 5,500/65 ms and an […]. A BOLD rsfMRI time series of 16×0.7 mm thick coronal slices were collected using TR/TE 4,000/17 ms and a 60o flip angle. For analysis, a structural template^33 was custom labeled using “The Mouse Brain” by Paxinos and Franklin as reference (FIGS. 6A-6C). The non-rigid transformation between the template and each individual mouse was estimated using the open source Advanced Normalization Tools (ANTs) package^34 that was then used to propagate the regional labels to each subject. […] The correlation matrix was determined from the clean fMRI data using the regions labels. […] When comparing networks from multiple sample groups, the threshold was determined by calculating the maximum threshold that leaves one of the networks connected (i.e., it is possible to reach any node in the network from any other node). […]

Experiment [2] relates to layer 2/3 prefrontal cortical neurons. Nature of the experiment: Whole-cell patch-clamp of tonic inhibitory currents in acute brain slices. It counts as cell-based, mouse. The procedure: Visualized whole-cell patch-clamp recordings were performed on layer 2/3 prefrontal cortical neurons prepared from acute brain slices (adult) using the protective recovery method^42. Recordings were performed in 34° C. artificial cerebrospinal fluid (ACSF) containing (in mM) 131.5 NaCl, 25 NaHCO3, 12 D-glucose, 2.5 KCl, 1.25 NaH2PO4, 2 CaCl2, and 1 MgCl2. ACSF also contained 3 mM kynurenic acid to block synaptic excitation and […] NO-711 to enhance tonic inhibition^43. Slices were incubated in this ACSF for 5-10 minutes prior to placement in the recording chamber. The patch pipette solution with elevated chloride contained (in mM) 140 CsCl, 4 NaCl, 1 MgCl2, 10 HEPES, 0.05 EGTA, 2 Mg-ATP, and 0.4 Mg-GTP^43. Once recordings equilibrated, baseline holding current in ACSF was measured for 3.5 minutes, after which ACSF containing IFN-γ (20 pg/mL) was applied for 8.5 minutes and then washed. Data presented show the mean holding current during the last minute of control (ACSF) and drug (ACSF+IFN-γ) conditions.
(The patch-clamp technique gives a direct electrical read-out from membranes.)

In experiment [3] the test system is mice. Nature of the experiment: PTZ induced seizures. In kind it is in vivo, mouse. To be noted: IFN-γ i.c.m. 24 hours prior to PTZ 40 mg/kg i.p. Here is the method: IFN-γ was injected (i.c.m.) into the CSF through the cisterna magna (i.c.m.), as described above, 24 hours prior to inducing seizures. Control mice were injected with the same volume of saline. To induce seizures, mice were injected with PTZ (40 mg/kg; i.p.). After injection, mice were placed into an empty housing cage and recorded for video analysis. Seizures were analyzed by a blinded observer using a behavior scoring system previously published^41.

Experiment [4] has as its system layer I neocortical neurons. As to the kind of experiment: c-fos immunohistochemistry in PFC after CSF injection. It counts as in vivo, mouse. To be noted: IFN-γ injected into the CSF (i.c.m.) 2 hours prior to sacrificing. Here is the method:
Mice were sacrificed under Euthasol then transcardially perfused with PBS with heparin. Brains were removed and drop fixed in 4% PFA for 48 hours. After fixation, brains were washed with PBS, cryoprotected with 30% sucrose, then frozen in O.C.T. compound (Sakura Finetek) and sliced ([…]) with a cryostat (Leica). Free-floating sections were maintained in PBS+Azide (0.02%) until further processing. Immunohistochemistry for c-fos (1:1000 dilution; Millipore) on free-floating sections was performed as previously described^39.
as §1

On to `CN1C(=O)CN=C(c2ccccc2)c2cc(Cl)ccc21` [diazepam, reference compound], for which the “social deficits / social behavior” value in the experiment with mice [1] was “rescued social deficits”; with mice [1] (listed as Diazepam), “successfully rescued social behavior”.

B1: IFN-γ: recombinant interferon-gamma cytokine (eBioscience), injected into the CSF via cisterna magna (protein, UniProt P01580 23-155, looked up)
Interferon gamma: HGTVIESLESLNNYFNSSGIDVEEKSLFLDIWRNWQKDGDMKILQSQIISFYLRLFEVLKDNQAISNNISVIESHLITTFFSNSKAKKDAFMSIAKFEVNNPQVQRQAFNELIRVVHQLLPESSLRKRKRSRC
For the molecule B1, in the experiment on mice [1] (Ifngr1−/− mice, IFN-γ injected into the CSF), the social deficits entry was “not rescued”. Besides, the “social preference / social deficits” value is on record as “sufficient to rescue social deficits” with mice [1] and “sufficient to restore their social preference” in the experiment with mice [1] (listed as recombinant IFN-γ). Moreover, the “hyper-connectivity in the PFC (connections of local PFC/insular nodes)” value with Ifng−/− mice (Jennrich test P=0.02) is given as “connections were reduced”; in the experiment on Ifng−/− mice (Jennrich test P=0.02, listed as recombinant IFN-γ), “reduce overall hyper-connectivity in the PFC”. The tonic inhibition entry in experiment [2] (VgatCre::Ifngr1fl/fl line, Cre− mice) is listed as “increased tonic inhibition”. Besides, the tonic inhibitory current result in experiment [2] (VgatCre::Ifngr1 fl/fl mice (IFN-γ receptor deleted from inhibitory neurons)) was “prevented IFN-γ from augmenting tonic inhibitory current”. Moreover, the “tonic GABAergic inhibitory current (holding current)” value in experiment [2] (slices from wild-type mice, IFN-γ 20 pg/mL in ACSF for 8.5 minutes) is recorded as “increases tonic GABAergic inhibitory current; also recorded: augmented tonic current”. For the same molecule, in the experiment on mice [3], the “latency to reach each seizure stage / seizure onset” value was “increased latency to reach each seizure stage; also recorded: delayed seizure onset”. Also, the “maximum severity of seizures” value with mice [3] is listed as “reduced the maximum severity of seizures; also recorded: lowered seizure severity”. The “susceptibility to PTZ induced seizures” value in the experiment with mice [3] was “less susceptible to PTZ induced seizures”. Further, the “c-fos+ cells in layer I of the PFC” value in experiment [4] was “increased the number of c-fos+ cells in Layer I of the PFC”; in experiment [4] (listed as recombinant IFN-γ) it was “activated layer I neocortical neurons”.

These data come from patent publication US11389509B1, “Methods for treatment of social dysfunction neurological disorders and seizures” (University of Virginia Patent Foundation, priority 2017, dated 2022).
